{
  "source": "patent US20140161803A1",
  "about": "(IFOM Fondazione Istituo FIRC di Oncologia Molecolare, priority 2011, published 2014)",
  "molecules": {"B1": {"name": "13F6: non-inhibitory monoclonal anti-uPAR antibody raised against GFDuPAR-hFc; IgG1 κ (antibody, V domains shown)", "VH": "ELVKPGASVELSCKASGYTFTSYWMNWVKQRPGRGLEWIGRIAPNSGGTQYSGKFKTKATLTVDKSSSTAYMQLSSLTSEDSAVYYCARGDYFGHFDYWGQGTTLTVS", "VL": "SLSASLGGKVTITCKASQDINNYIAWYQHKPGKGPRLLIHYTSILQPGIPSRFSGSGSGRDYSFSISNLEPEDIATYYCLQCDNLLTFGAGTKLELK"}},
  "system": "PC-3 cells",
  "test": "PC3 prostate cancer xenograft tumor growth",
  "assay_type": "in vivo, Balb C nu/nu mice",
  "conditions": "10.0 mg/kg i.p. bi-weekly; s.c. PC-3 xenograft; versus control animals",
  "method": "Male Balb C nu/nu mice were inoculated with (1×10^6) PC-3 cells through the subcutaneous (s.c.) route. […] Tumors were measured twice weekly, and tumor volume was determined as described in Materials and Methods.\nSix-week-old male Balb C nu/nu mice were obtained from Charles River. Before inoculation, PC-3 cells growing in serum-containing medium were washed with phosphate buffered saline (PBS), harvested by trypsinization, and pelleted at 1200 rpm for 7 minutes. Cells (1.0×10^6) were resuspended in 200 μl of PBS with 20% Matrigel. Animals were anesthetized by intraperitoneal (i.p.) injection of Avertin and 1.0×10^6 cells were inoculated subcutaneously (s.c.) using a 26-gauge needle into the right flank of anesthetized mice. […] The animals were monitored twice a week for 7 weeks for tumor development and growth. Tumor volume was determined according to the formula: tumor volume=shorter diameter^2×longer diameter/2. […] Results were analyzed as the mean±SE, and comparisons of the experimental data were analyzed by unpaired, two-tailed, equal variance, t-test.\nIn this model, one million PC3 cells were inoculated in the right flank of male Balb C nu/nu mice through subcutaneous route.",
  "data": [
    {"molecule": "B1", "values": [
      {"measurement": "effect on tumor volume", "result": "A similar inhibition was not observed"}
    ]}
  ]
}
